Patent US20240010680A1, “PEPTIDE DISINFECTANT FOR PREVENTING CORONAVIRUSES” (Xiamen University, priority 2021, published 2024)

Molecular target: hACE2-His purified protein (human (printed as hACE2)) (UniProt Q9BYF1)
Sequence (Q9BYF1 18-740 limits assumed): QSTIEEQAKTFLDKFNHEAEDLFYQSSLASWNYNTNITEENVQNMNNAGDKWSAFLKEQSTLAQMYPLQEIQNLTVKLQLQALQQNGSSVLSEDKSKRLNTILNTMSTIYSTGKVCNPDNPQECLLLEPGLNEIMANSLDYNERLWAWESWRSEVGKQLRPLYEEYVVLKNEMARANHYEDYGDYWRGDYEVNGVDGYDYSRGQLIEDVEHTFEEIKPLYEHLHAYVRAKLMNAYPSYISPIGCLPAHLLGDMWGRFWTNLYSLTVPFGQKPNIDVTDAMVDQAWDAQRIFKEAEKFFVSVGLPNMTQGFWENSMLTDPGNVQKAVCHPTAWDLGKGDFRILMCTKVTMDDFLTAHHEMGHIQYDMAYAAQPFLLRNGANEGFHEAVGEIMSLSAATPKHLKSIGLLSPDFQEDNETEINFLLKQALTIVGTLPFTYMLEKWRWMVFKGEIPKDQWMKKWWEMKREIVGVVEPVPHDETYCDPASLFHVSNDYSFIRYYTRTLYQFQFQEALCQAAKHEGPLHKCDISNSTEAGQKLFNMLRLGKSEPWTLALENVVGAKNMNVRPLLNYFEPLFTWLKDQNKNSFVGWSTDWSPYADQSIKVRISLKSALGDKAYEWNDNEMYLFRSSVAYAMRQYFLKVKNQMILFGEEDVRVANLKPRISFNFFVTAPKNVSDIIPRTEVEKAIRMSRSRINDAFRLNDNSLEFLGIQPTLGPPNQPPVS

S1-HA purified protein (ligand)
Relative brightness value: 100%
